Results: article PMC9360449, “Programmable RNA targeting by bacterial Argonaute nucleases with unconventional guide binding and cleavage specificity”

Tests used:
[1] = tested on: PnyAgo WT (Pedobacter nyackensis); test: filter binding; conditions: 10 mM Tris-HCl pH 7.9, 100 mM NaCl, 5 mM MgCl2 (or none), 5% glycerol, 100 ug/ml BSA, 37 C
[2] = tested on: PnyAgo WT (Pedobacter nyackensis); test: competition; conditions: filter binding, 100 nM pAgo; 5'-OH; 10 mM Tris-HCl pH 7.9, 100 mM NaCl, 5 mM MgCl2 (or none), 5% glycerol, 100 ug/ml BSA, 37 C
PliAgo WT [3] = target: T1, PliAgo WT (Pseudooceanicola lipolyticus, UniProt A0A2M8J4C7 1-789); test: X-ray crystallography; no Mg2+; conditions: protein: recombinant; tags: N-His6; single strand
T1 sequence: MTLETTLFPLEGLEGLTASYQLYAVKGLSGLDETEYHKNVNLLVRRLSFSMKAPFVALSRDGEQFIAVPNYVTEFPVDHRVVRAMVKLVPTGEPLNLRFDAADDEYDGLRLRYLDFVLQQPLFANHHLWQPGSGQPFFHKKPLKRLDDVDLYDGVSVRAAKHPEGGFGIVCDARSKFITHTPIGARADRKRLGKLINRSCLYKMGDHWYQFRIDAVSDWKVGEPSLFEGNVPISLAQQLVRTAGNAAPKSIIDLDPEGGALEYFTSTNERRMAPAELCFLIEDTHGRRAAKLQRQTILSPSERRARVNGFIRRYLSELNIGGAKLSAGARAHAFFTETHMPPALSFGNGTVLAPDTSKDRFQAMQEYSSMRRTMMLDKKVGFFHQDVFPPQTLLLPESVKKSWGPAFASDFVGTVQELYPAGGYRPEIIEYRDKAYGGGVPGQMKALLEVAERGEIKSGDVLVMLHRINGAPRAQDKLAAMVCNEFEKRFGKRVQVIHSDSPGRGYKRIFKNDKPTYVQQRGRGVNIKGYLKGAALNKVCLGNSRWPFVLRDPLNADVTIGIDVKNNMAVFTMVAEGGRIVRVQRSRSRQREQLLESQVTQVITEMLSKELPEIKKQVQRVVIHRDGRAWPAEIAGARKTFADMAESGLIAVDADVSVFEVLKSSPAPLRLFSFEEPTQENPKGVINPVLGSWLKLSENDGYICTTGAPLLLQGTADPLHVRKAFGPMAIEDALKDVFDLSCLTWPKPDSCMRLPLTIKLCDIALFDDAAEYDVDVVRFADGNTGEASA

PliAgo WT [4] = target: T1, PliAgo WT; test: X-ray crystallography; 10 mM Tris-HCl pH 7.9, 100 mM NaCl, 5 mM MgCl2 (or none), 5% glycerol, 100 ug/ml BSA, 37 C; conditions: protein: recombinant; tags: N-His6; single strand

In the case of “GTTAGACTTTAAGTCAAT / UUUAUCAAAAAGAGUAUUGACUUAAAGUCUAACCUAUAGGAUACUUACAG [guide DNA / G-target-RNA]”, the Kd ([1]; guide-loaded, 5'-phosphate on guide) is reported as 7.5 nM.

For “GTTAGACTTTAAGTCAAT [5'-P guide DNA (G-guide)]”, the Kd ([1]; 5 mM Mg2+, 5'-phosphate) was 31 nM and the Kd ([1]; no Mg2+, 5'-phosphate) was 390 nM.

For “GUUAGACUUUAAGUCAAU [guide RNA (G-guide-RNA)]”, the Kd ([1]; 5 mM Mg2+, 5'-phosphate) was over 1000 nM.

For “GTTAGACTTTAAGTCAAT [5'-OH guide DNA (G-guide)]”, the binding signal (fold Kd increase vs 5'-P guide) [2] was 12.

TTACTGCACAGGTGACGA (ssDNA, 5'-phosphate) [3D-guide P-gDNA]: binds (PliAgo WT [3]).

TTACTGCACAGGTGACGA (ssDNA, 5'-OH) [3D-guide OH-gDNA]: binds (PliAgo WT [4]).
